Molecular target: VirB4-like TraB ATPase of the pKM101-encoded type IV secretion system (plasmid pKM101 (carried in E. coli))
Assay: cryo-EM structure; in situ cryo-electron tomography with subtomogram averaging of T4SS(pKM101) machines in E. coli UU2834 minicells; 6-fold symmetry seen in class averages and then imposed for the IMC; wild type compared with ΔtraB mutant machines

Substance: VirB4-like TraB ATPase of the pKM101-encoded type IV secretion system (enzyme)
- stoichiometry N: 12

Source: paper PMC8510550
